One series concerns the target Sox2 HMG (human) (UniProt P48431). Briefly: fluorescence anisotropy. The conditions noted are these: FP at 4°C, ERα: 20 mM Tris pH 7.5 (at 25°C), 100 mM NaCl, 5% glycerol, 0.01% IGEPAL, Sox2: 10 mM Tris pH 7.5 (at 25°C), 135 mM KCl, 15 mM NaCl, 0.1 mg/mL BSA …. For orientation: Fluorescence polarisation rises when a labelled molecule tumbles more slowly, as on binding a larger partner.

The test system of another series is ERα DBD-Ext (human). Briefly: fluorescence anisotropy. The conditions noted are these: apparent, FP at 4°C, ERα: 20 mM Tris pH 7.5 (at 25°C), 100 mM NaCl, 5% glycerol, 0.01% IGEPAL, Sox2: 10 mM Tris pH 7.5 (at 25°C), 135 mM KCl, 15 mM NaCl, 0.1 mg/mL BSA ….

Sox2 HMG (human), sequence (P48431 40-123): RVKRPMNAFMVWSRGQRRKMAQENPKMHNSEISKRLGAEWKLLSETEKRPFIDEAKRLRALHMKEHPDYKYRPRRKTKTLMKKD

Turning to hRNA (43 nt), in the series with Sox2 HMG (human) (apparent, Hill n 1.1), the Kd was 53 nM.

As to ΔERE dsDNA (15 bp, half-site), the Kd in the series on ERα DBD-Ext (human) (Hill n 1.5, about half the ligand concentration, true Kd may be lower) came out at 2.8 nM.

Regarding NBS dsDNA (19 bp), the Kd with Sox2 HMG (human) (apparent, Hill n 0.57) worked out at 29 nM.

As for ERE dsDNA (18 bp), the Kd in the series with ERα DBD-Ext (human) (Hill n 2.1) worked out at 11 nM.

On to XBP1 hRNA (37 nt), for which the Kd with ERα DBD-Ext (human) (Hill n 0.91) is 370 nM.

For the substance CBS dsDNA (10 bp), the Kd was below 1 nM in the series with Sox2 HMG (human) (printed ≤1, first (high-affinity) transition, 54% of signal) and 420 nM with Sox2 HMG (human) (second (low-affinity) transition).
